The supplement of paper PMC11502859

Tested on: HEK293T
Test: median enrichment of reporter reads in eGFP-reduced (low/intermediate) vs eGFP-high sorted cells (eGFP-extension fusion abundance) (ratio); higher = stronger loss of eGFP-fusion protein abundance (more destabilising extension)
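Note: lentiviral eGFP-IRES-mCherry reporter pool sorted by FACS 96 h post-transduction, gated on mCherry-high cells, Illumina read counts normalized per million, median across four biological replicates.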

YCLKGFY [GNL2]
median enrichment: 8.39

STVKEGVFVWTR [DSC1]
median enrichment: 2.35

NNNNN [Asn05]
median enrichment: 0.217

CHLRNI [MLLT10]
median enrichment: 1.38

LPRPQPGPRTSGHRWHQPLLQDHQSGAPRTLACVP [GSG1L]
median enrichment: 17.3

WKTCSLSILPMKIHFTHPPPLLFCHVFPSLCIARFEVTDTHPKPCCSQSPILHILMGK [SYNJ2BP]
median enrichment: 7.06

GVFDS [DDX50]
median enrichment: 0.357

RTPNTIFAIQPQAMGTAFLPRGPGRPQRLLQARTLVHYTPCLGAEILQQKDAIFFVSFFSIFFSKESIFQYVECVSNAMKLKY [NFYC]
median enrichment: 15.8

HHHHHH [His06]
median enrichment: 0.337

QTGWPGPNP [EMILIN3]
median enrichment: 0.352

RRRR [Arg04]
median enrichment: 0.344

RGNMCNVLTKVTGTY [PLEKHS1]
median enrichment: 1.76

WKLYMLRDVLLSGSIELPLSVNFKV [PDCD10]
median enrichment: 11

SAQQSHHPASQAGGRSWGRGLSPVRLLLVKGQGPGQASSSVQVILASVVGGRESKTCSAVSSSGD [PIK3C2B]
median enrichment: 2.95

RRRRRR [Arg06]
median enrichment: 0.898

DDDD [Asp04]
median enrichment: 0.37

HHHHHHHH [His08]
median enrichment: 0.421

WGRDSVPLAVLPSLLVCQASPPTTPHQATPAASAFLGAERQPRPPVPSPPSHHRSSAPGRTVWPLPVPAMGSGWTPWAPPIAK [CAPN1]
median enrichment: 7.5

ELQQKNLHCYIRYRYKMQKKHQEFCLLFYFIFKLQEVFSSWDNLVLLLSIICQFLCILNKINIELK [WDR49]
median enrichment: 2.64

CRKVSKNVNIL [C2orf49]
median enrichment: 0.739

SCRVFSSFFLLQEFVVT [MMP16]
median enrichment: 3.12

EKLVLCSG [ZDBF2]
median enrichment: 5.06

LLCKEYGIAKISLVANISGKVHIFILNSHSFEL [MYNN]
median enrichment: 4.26

LLHERMQRMQFPGCAVDFFQQV [CEP112]
median enrichment: 20.7

LAVGAHHLPDSQRENNLAKPIFDTGTFSSQFSLFSQKMI [C1orf105]
median enrichment: 12.7

LGSVQGLSH [CST5]
median enrichment: 0.51

LNLNGHYKLSNST [ARMC4]
median enrichment: 1.8

LLLLL [Leu05]
median enrichment: 4.74

YLTFPAESVARGKVTIYAEMICLVPILCSTSVFQKFLINKLI [CDCA2]
median enrichment: 4.06

SIPHPGSSAPRAGGHLRSVISL [IP6K2]
median enrichment: 0.975

LWDNHKVWKLGLK [BCO2]
median enrichment: 4.23

CEQQMELWERGEQWGYRESSSALPLGQPHLPAVSPGHFSTSQVEVLQGPAATCIRRTSFSA [SPATA19]
median enrichment: 2.8

WHLTNHSTEHTFIFVSAFVLKLSKYIHLCNRNL [ADGRV1]
median enrichment: 13.2

LTHAHAPLTLKRIHNSLEKHPHVCCRTHSSQLRPIPVTTASPPTPVTTASPPTPVTTASPPTALSPRPMSACPRAQDFLTGMW [SSH3]
median enrichment: 3.55

RGRGCPPRPLTPPAAVAAILPLAWGLPSPSQSISPPPSCSGWMWACR [KMT2B]
median enrichment: 4.49

RALVPWQRDEKLQALSPAWAGSGARGCDSSRRVETLGWTGGGQRPAGGAPGMCPDMVNL [VAV1]
median enrichment: 1.76

LNFQQRPSKDILQDSVIVNIWKVLEIFIVCKYCKCIGIKLSPPLLYETAHWSL [PTHLH]
median enrichment: 0.919

TMNNEEDLLRSL [Degron FEM1C]
median enrichment: 0.347

WLSLRKGRRRGAQGHLLP
median enrichment: 28.3

RSHFCQMLPSTINALGGRRGRQ [ETHE1]
median enrichment: 12.6

CVSYSSSMLGIPTAATMILVPERAMLLFQLV [MTMR8]
median enrichment: 23.9

LNFHTEF [TP53BP2]
median enrichment: 0.758

IIII [Ile04]
median enrichment: 11.9

WKLRF [TRMT11]
median enrichment: 1.93

KKKKKKKKKK [Lys10]
median enrichment: 1.08

SQFNLKFLISPTTIY [TSEN2]
median enrichment: 8.83

WGQCLPAPPLASSSAPRVPSVDPIRPAMASYSKMV [ACO2]
median enrichment: 0.96

CRSWRTLGPRPAPIAGGR [MKNK2]
median enrichment: 8.08

QDTERRTYSRNGLVQSQSPPL [CFAP157]
median enrichment: 0.332

SVLPAHLGLVLALPRPL [LRSAM1]
median enrichment: 14.6

SVCAGDQINRLGCAK [NOSIP]
median enrichment: 1.17

HTTGQGCGAGAIPAPFPGPRGLGSLPSHPGLVPPGAPTVEIRRGWNGGRGGAGGPHPSAALGLGPHPSGGPEAGGGNPRGWLF [GNB2]
median enrichment: 0.37

YWWLVVMNSYSVASSLPASHLPSTSQLLPSLTEANIFI [NTRK3]
median enrichment: 23.2

CGSLRTTASLLLTSVATEAERQSDTSTGAPGEMGPA [PEX26]
median enrichment: 0.412

CGLGRFS [IMMT]
median enrichment: 0.695

RGASLLSSHSGSSFHPPPSPPPTRGTWWREAGRLFCGIARSSLWCRLVAITCNKAPGKGK [TLE6]
median enrichment: 21.9

LDPQVPLSKAENVHIPHWHFPKDKNCPRHILSV [VSX1]
median enrichment: 10

RLWSRHPAEWGPRGCQLGALPLAATLWSGRVLHHQEDPILSSVSCPSCCGMLSTEPTAHLPLHLPESVSICNKRQPRLPRAVS [INAFM1]
median enrichment: 3.36

LALLSRWGLPETVCFVSPTTITATWLLPCGRRVTG [SF3B3]
median enrichment: 34.6

CLSLPSSWDYSHTPPHLDNFVFLVETGFHYVGQAGLKLLSSGDPSASASQNAGITSVSHYTWFFFPLFANSHGVFWHHFQHYF [RBP1]
median enrichment: 8.27

WWWW [Trp04]
median enrichment: 7.39

LPVRPAQPGPGPRFSTRTVHPASRSL [DLGAP3]
median enrichment: 17.6

WTGFAYLVLTLHHHHLMPTCPHPAELLSGHSLLLPFLLPLALPGPACTPVGWKCTAGSGSGSAPLWDPTFFSSLLLK [PTPN23]
median enrichment: 7.32

QVNANSIVEPGV [PRKCB]
median enrichment: 0.284

YPVTL [SMCO1]
median enrichment: 0.416

YDLIQHRNDSH [IFNA6]
median enrichment: 0.697

LVCPLATDTVGNQTLSWSLLLAHSTSKWI [HIBADH]
median enrichment: 12.8

YAATDLGHLSQLAHPPPLPNFRYLSILLK [FBXL6]
median enrichment: 5.29

ETSSGQNRRVPNYVLKP [SLC10A2]
median enrichment: 0.355

GGEERRADLGRALRTWPRARDSPGSSSPWQAQQHVPQIWKGLPLCQCLGGCHGCPHPLLSVCGVEEPTPASCQDHLGGHTPAK [GPRC5C]
median enrichment: 0.687

RKEKQLLPLSWDRGVGKSAGPHGAWGSQTEAPQNFLQCLRDAWMWPLPLLLTLKDSQTH [LY9]
median enrichment: 4.97

WEDRPAASWSREASVIAHTQFRFPPLYRQEVNLPGAEHPPKESPLNNTPPPRQECPNPNDPSFPNE [EDN3]
median enrichment: 0.582

SLYRLRR [ST3GAL6]
median enrichment: 3.73

FFFFFFFF [Phe08]
median enrichment: 9.45

GVSGGEERRADLGRALRTWPRARDSPGSSSPWQAQQHVPQIWKGLPLCQCLGGCHGCPHPLLSVCGVEEPTPASCQDHLGGHT [GPRC5C]
median enrichment: 1.27

QKILPSLVVGTDRIHLTQTSSFTDFNYLFLKT [WSB1]
median enrichment: 2.9

RPSTVPGP [HYKK]
median enrichment: 0.522

GISVSSLISGIFVDKIRRNSCNF [KATNAL1]
median enrichment: 2.39

DDDDDDD [Asp07]
median enrichment: 0.338

SAAVTTFTCSSYTQTLQD [PIFO]
median enrichment: 1.55

WLHW [RIMKLB]
median enrichment: 3.98

SARSAVSSQWILVNWWRLADTLEKPKPESLLFSLFSCLCSVSLNTTFSAMVCG [MRFAP1]
median enrichment: 5.22

CGACYGLNCAPK [ZNF81]
median enrichment: 1.07

EEEEEEEEE [Glu09]
median enrichment: 0.433

LGQAAPVLGEGG [DEPDC5]
median enrichment: 1.71

RTQDSE [CD3G]
median enrichment: 0.492

YPWPPGLASSFWVSQAPLALTPLARSPSFRSS [PPFIA4]
median enrichment: 16

LLLLLLLLLL [Leu10]
median enrichment: 14.7

SFTHHMDSIYKSQ [EDNRB]
median enrichment: 1.08

YLLCVVGGGYYLYQPSVCHEPVGKSDIFII [IL1RAP]
median enrichment: 6.77

RVTKKTMHHKIAQSSAEQFSGDPWTQ [CXCL6]
median enrichment: 0.284

SEVPDMGPICSSSQLLSLTSHHGGSSHLLWICSL [CIAPIN1]
median enrichment: 4.18

SAPPAACPACPACLSRHTGFRTC [DIS3L2]
median enrichment: 16.6

SGV [PTCHD4]
median enrichment: 0.462

YMCPTDPGTFLPQCCACKYTVKLSLYHFDRGED [GLRA2]
median enrichment: 11.1

WGHIQDNYTFAQPGIQMKVKMLEELVSRIDEQVHRHLDQHEVRYLQFAFRWMNNLLMREVPLRCTIRLWDTYQSEPDGFSHFH [TBC1D22A]
median enrichment: 11.6

SCLY [GLRX2]
median enrichment: 1.01

WEPTACRCRRMRGCRDARRRPRSQPTTPPPA [FOXL2]
median enrichment: 17.5

RGLRRGLTEP [SLC22A6]
median enrichment: 0.442

LVISSVFCFLF [MS4A1]
median enrichment: 7.46

CAPWWERL [HTT]
median enrichment: 1.22

SLIRLAT [AK6]
median enrichment: 9.3

LRWLACWAWGLLTDSMEQGWAVCAHAQHALRGGGGGRGFLMSVQELKVSGVLPRICPTPHDKTELCNKQYQFILAVGFCFFSS [WDR6]
median enrichment: 7.93

REQVPAPHTPWRLPLRLHRLLPSIQPGVQVALFRGQMQAVGRTLPVSCVPHRERLWGDGWGMQSLRANKSSSEPASPLNV [KHK]
median enrichment: 2.84

YDPCGRPLPPSHRLPHHSCLVLGRPHCALALGLPSLLQQGTGALARVTD [GTF3C1]
median enrichment: 6.87

LPRWFQPRHTLVPT [DNAAF5]
median enrichment: 4.04

QRFSSEKNLCLIF [PHACTR3]
median enrichment: 9.78

QDPVVLFESLRP [HAVCR1]
median enrichment: 0.393

KKKKKKKK [Lys08]
median enrichment: 1.65

KFSLLHYVHKGDHYHWGRNSCLVQCGKFLYIR [PDZRN3]
median enrichment: 12.1

EVDV [PRKCB]
median enrichment: 0.313

IIIIIIIIII [Ile10]
median enrichment: 6.67

LQIYVCYN [OR8I2]
median enrichment: 6.8

LGALPGTGSLTSQD [KIF19]
median enrichment: 0.309

RNCMKKIKSSKMALVTIKKL [CXorf41]
median enrichment: 2.73

CNTM [STAP1]
median enrichment: 0.724

LRICRRFPFMKH [CUL4A]
median enrichment: 8.83

LEIPGFSDGPI [SLC39A2]
median enrichment: 0.676

LAEDPADPYLEEEEKQERESHSQPAIGSNWTTCGMDLETSTSPNTSPLPRAGPVHALP [CYFIP2]
median enrichment: 1.33

YPALLPSDGHPSRGLSHTVPLRSA [CTDSP2]
median enrichment: 9.24

WGWRQLSSRSLGFAALAAVTRNCPGLGGELGGP [ACP7]
median enrichment: 8.55

RIFTHIYLVSIG [FAM129C]
median enrichment: 28.5

WAGLRGMVRTSPP [NANS]
median enrichment: 6.83
